Data on 8 sequences can be found in the supplement of paper PMC11246515.

± gives the standard deviation of the averaged measurements.

A short description of the series: total protein half-life in vivo (active degradation + dilution); higher = more stable protein.
[1] abbreviates: E. coli NCM3722 delta-clpP delta-lon delta-hslV, growth: N-lim chemostat, doubling time 6 h.
Where [2] appears, read: E. coli NCM3722 delta-clpP, growth: N-lim chemostat, doubling time 6 h.
Setting [3] is: E. coli NCM3722 delta-hslV, growth: N-lim chemostat, doubling time 6 h.
Setting [4] is: E. coli NCM3722 delta-lon, growth: N-lim chemostat, doubling time 6 h.
The mark [5] stands for this setting: E. coli NCM3722 delta-smpB, growth: N-lim chemostat, doubling time 6 h.
Setting [6] is: wild type E. coli NCM3722, growth: C-lim chemostat, doubling time 3 h.
Setting [7] is: wild type E. coli NCM3722, growth: C-lim chemostat, doubling time 6 h.
[8] abbreviates: wild type E. coli NCM3722, growth: C-lim chemostat, doubling time 12 h.
Where [9] appears, read: wild type E. coli NCM3722, growth: N-lim chemostat, doubling time 6 h.
Setting [10] is: wild type E. coli NCM3722, growth: N-lim chemostat, doubling time 12 h.
Setting [11] is: wild type E. coli NCM3722, growth: P-lim chemostat, doubling time 6 h.
Where [12] appears, read: wild type E. coli NCM3722, growth: P-lim chemostat, doubling time 12 h.

For the sequence “MKCPVCHQGEMVSGIKDIPYTFRGRKTVLKGIHGLYCVHCEESIMNKEESDAFMAQVKAFRASVNAETVAPEFIVKVRKKLSLTQKEASEIFGGGVNAFSRYEKGNAQPHPSTIKLLRVLDKHPELLNEIR”, the “total protein half-life in vivo” value under setting [1] came out at 4.78 ± 0.28 h; the “total protein half-life in vivo” value under setting [2] was determined as 1.229 ± 0.0039 h; the “total protein half-life in vivo” value under setting [3] was determined as 1.01 h; the “total protein half-life in vivo” value under setting [4] stood at 3.01 ± 0.085 h; the “total protein half-life in vivo” value under setting [5] is 0.847 ± 0.046 h; the “total protein half-life in vivo” value under setting [6] stood at 0.559 ± 0.062 h. For the same sequence, the “total protein half-life in vivo” value under setting [7] was 1.07 ± 0.12 h; the “total protein half-life in vivo” value under setting [8] is 1.23 h; the “total protein half-life in vivo” value under setting [9] is 0.993 h; the “total protein half-life in vivo” value under setting [10] turned out to be 1.08 h; the “total protein half-life in vivo” value under setting [11] was 1.13 h; the “total protein half-life in vivo” value under setting [12] worked out at 1.6 ± 0.84 h.
“MDQTYSLESFLNHVQKRDPNQTEFAQAVREVMTTLWPFLEQNPKYRQMSLLERLVEPERVIQFRVVWVDDRNQIQVNRAWRVQFSSAIGPYKGGMRFHPSVNLSILKFLGFEQTFKNALTTLPMGGGKGGSDFDPKGKSEGEVMRFCQALMTELYRHLGADTDVPAGDIGVGGREVGFMAGMMKKLSNNTACVFTGKGLSFGGSLIRPEATGYGLVYFTEAMLKRHGMGFEGMRVSVSGSGNVAQYAIEKAMEFGARVITASDSSGTVVDESGFTKEKLARLIEIKASRDGRVADYAKEFGLVYLEGQQPWSLPVDIALPCATQNELDVDAAHQLIANGVKAVAEGANMPTTIEATELFQQAGVLFAPGKAANAGGVATSGLEMAQNAARLGWKAEKVDARLHHIMLDIHHACVEHGGEGEQTNYVQGANIAGFVKVADAMLAQGVI”: the “total protein half-life in vivo” value runs as follows: under setting [1], 3.53 ± 0.36 h; under setting [2], 1.97 ± 0.1 h; under setting [3], 1.8 ± 0.11 h; under setting [4], 2.13 ± 0.14 h; under setting [5], 2.14 ± 0.08 h; under setting [6], 2.94 ± 0.19 h. Moreover, the “total protein half-life in vivo” value is, setting by setting: under setting [7], 4.66 ± 0.28 h; under setting [8], 7.29 ± 0.52 h; under setting [9], 1.88 ± 0.073 h; under setting [10], 2.61 ± 0.4 h; under setting [11], 5.35 ± 0.14 h; under setting [12], 9.48 ± 0.6 h.
Regarding “MRKIVAMAVICLTAASGLTSAYAAQLADDEAGLRIRLKNELRRADKPSAGAGRDIYAWVQGGLLDFNSGYYSNIIGVEGGAYYVYKLGARADMSTRWYLDGDKSFGFALGAVKIKPSENSLLKLGRFGTDYSYGSLPYRIPLMAGSSQRTLPTVSEGALGYWALTPNIDLWGMWRSRVFLWTDSTTGIRDEGVYNSQTGKYDKHRARSFLAASWHDDTSRYSLGASVQKDVSNQIQSILEKSIPLDPNYTLKGELLGFYAQLEGLSRNTSQPNETALVSGQLTWNAPWGSVFGSGGYLRHAMNGAVVDTDIGYPFSLSLDRNREGMQSWQLGVNYRLTPQFTLTFAPIVTRGYESSKRDVRIEGTGILGGMNYRVSEGPLQGMNFFLAADKGREKRDGSTLGDRLNYWDVKMSIQYDFMLK”, the “total protein half-life in vivo” value turned out to be 3.55 ± 0.51 h under setting [6], 7.84 h under setting [7] and 11.5 ± 2 h under setting [8].
With “MKFKTNKLSLNLVLASSLLAASIPAFAVTGDTDQPIHIESDQQSLDMQGNVVTFTGNVIVTQGTIKINADKVVVTRPGGEQGKEVIDGYGKPATFYQMQDNGKPVEGHASQMHYELAKDFVVLTGNAYLQQVDSNIKGDKITYLVKEQKMQAFSDKGKRVTTVLVPSQLQDKNNKGQTPAQKKGN [P0ADV1]”, the “total protein half-life in vivo” value reads like this: under setting [1], 5.44 ± 0.34 h; under setting [3], 6.38 ± 0.74 h; under setting [4], 6.48 ± 1.1 h; under setting [5], 6.18 ± 0.62 h; under setting [6], 3.06 ± 0.23 h; under setting [7], 5.6321 ± 0.0032 h. Further, the “total protein half-life in vivo” value is, setting by setting: under setting [8], 10.5 ± 0.36 h; under setting [9], 5.73 ± 0.082 h; under setting [10], 9.99 ± 1.6 h; under setting [11], 5.79 ± 0.07 h; under setting [12], 11.8 ± 0.99 h.
“MRIGMRLLLGYFLLVAVAAWFVLAIFVKEVKPGVRRATEGTLIDTATLLAELARPDLLSGDPTHGQLAQAFNQLQHRPFRANIGGINKVRNEYHVYMTDAQGKVLFDSANKAVGQDYSRWNDVWLTLRGQYGARSTLQNPADPESSVMYVAAPIMDGSRLIGVLSVGKPNAAMAPVIKRSERRILWASAILLGIALVIGAGMVWWINRSIARLTRYADSVTDNKPVPLPDLGSSELRKLAQALESMRVKLEGKNYIEQYVYALTHELKSPLAAIRGAAEILREGPPPEVVARFTDNILTQNARMQALVETLLRQARLENRQEVVLTAVDVAALFRRVSEARTVQLAEKKITLHVTPTEVNVAAEPALLEQALGNLLDNAIDFTPESGCITLSAEVDQEHVTLKVLDTGSGIPDYALSRIFERFYSLPRANGQKSSGLGLAFVSEVARLFNGEVTLRNVQEGGVLASLRLHRHFT”: the “total protein half-life in vivo” value reads like this: under setting [1], 6.22 ± 0.68 h; under setting [2], 7.24 ± 0.64 h; under setting [3], 6.18 ± 0.49 h; under setting [4], 5.7 ± 0.74 h; under setting [5], 5.49 ± 0.91 h; under setting [6], 3.16 ± 0.14 h. The “total protein half-life in vivo” value runs as follows: under setting [7], 6.54 ± 1.2 h; under setting [8], 9.95 ± 2.1 h; under setting [9], 5.81 ± 0.57 h; under setting [10], 12.1 ± 0.34 h; under setting [11], 6.86 ± 0.85 h; under setting [12], 12.8 ± 1.8 h.
In the case of “MTNQPTEIAIVGGGMVGGALALGLAQHGFAVTVIEHAEPAPFVADSQPDVRISAISAASVSLLKGLGVWDAVQAMRCHPYRRLETWEWETAHVVFDAAELKLPLLGYMVENTVLQQALWQALEAHPKVTLRVPGSLIALHRHDDLQELELKGGEVIRAKLVIGADGANSQVRQMAGIGVHAWQYAQSCMLISVQCENDPGDSTWQQFTPDGPRAFLPLFDNWASLVWYDSPARIRQLQNMNMAQLQAEIAKHFPSRLGYVTPLAAGAFPLTRRHALQYVQPGLALVGDAAHTIHPLAGQGVNLGYRDVDALIDVLVNARSYGEAWASYPVLKRYQMRRMADNFIMQSGMDLFYAGFSNNLPPLRFMRNLGLMAAERAGVLKRQALKYALGL”, the “total protein half-life in vivo” value worked out at 4.44 ± 0.19 h under setting [1]; 3.97 ± 0.055 h under setting [2]; 4.09 ± 0.076 h under setting [3]; 3.34 ± 0.071 h under setting [4]; 3.93 ± 0.044 h under setting [5]; 2.59 ± 0.043 h under setting [6]. In addition, the “total protein half-life in vivo” value is, setting by setting: under setting [7], 4.352 ± 0.0069 h; under setting [8], 7.53 ± 0.7 h; under setting [9], 3.808 ± 0.035 h; under setting [10], 7.16 ± 0.92 h; under setting [11], 4.49 ± 0.16 h; under setting [12], 7.66 ± 0.16 h.
On to “MPPRRYNPDTRRDELLERINLDIPGAVAQALREDLGGTVDANNDITAKLLPENSRSHATVITRENGVFCGKRWVEEVFIQLAGDDVTIIWHVDDGDVINANQSLFELEGPSRVLLTGERTALNFVQTLSGVASKVRHYVELLEGTNTQLLDTRKTLPGLRSALKYAVLCGGGANHRLGLSDAFLIKENHIIASGSVRQAVEKASWLHPDAPVEVEVENLEELDEALKAGADIIMLDNFETEQMREAVKRTNGKALLEVSGNVTDKTLREFAETGVDFISVGALTKHVQALDLSMRFR”, for which the “total protein half-life in vivo” value under setting [1] was 4.6 ± 0.47 h; the “total protein half-life in vivo” value under setting [2] is 5.46 ± 2.3 h; the “total protein half-life in vivo” value under setting [3] was 4.1 ± 0.29 h; the “total protein half-life in vivo” value under setting [4] stood at 6.13 ± 1.8 h; the “total protein half-life in vivo” value under setting [5] was 4.05 ± 0.33 h; the “total protein half-life in vivo” value under setting [6] was 2.86 ± 0.25 h. For the same sequence, the “total protein half-life in vivo” value under setting [7] amounted to 5.827 ± 0.04 h; the “total protein half-life in vivo” value under setting [8] worked out at 8.46 ± 0.51 h; the “total protein half-life in vivo” value under setting [9] came to 3.72 ± 0.12 h; the “total protein half-life in vivo” value under setting [10] was found to be 7.1 ± 0.15 h; the “total protein half-life in vivo” value under setting [11] amounted to 5.5 ± 0.4 h; the “total protein half-life in vivo” value under setting [12] turned out to be 9.73 ± 0.27 h.
For “MERCGWVSQDPLYIAYHDNEWGVPETDSKKLFEMICLEGQQAGLSWITVLKKRENYRACFHQFDPVKVAAMQEEDVERLVQDAGIIRHRGKIQAIIGNARAYLQMEQNGEPFVDFVWSFVNHQPQVTQATTLSEIPTSTSASDALSKALKKRGFKFVGTTICYSFMQACGLVNDHVVGCCCYPGNKP”, the “total protein half-life in vivo” value is, setting by setting: under setting [1], 5.26 ± 0.55 h; under setting [2], 2.52 ± 0.12 h; under setting [3], 2.48 ± 0.17 h; under setting [4], 4.36 ± 0.28 h; under setting [5], 1.72 ± 0.98 h; under setting [7], 1.68 h. The “total protein half-life in vivo” value reads like this: under setting [8], 3.77 ± 2 h; under setting [9], 2.53 ± 0.58 h; under setting [10], 3.37 h.
